The assay deals with T1, GST::OsABI5 fusion protein (Oryza sativa subsp. japonica (Rice), UniProt Q8RZ35).
T1 chain: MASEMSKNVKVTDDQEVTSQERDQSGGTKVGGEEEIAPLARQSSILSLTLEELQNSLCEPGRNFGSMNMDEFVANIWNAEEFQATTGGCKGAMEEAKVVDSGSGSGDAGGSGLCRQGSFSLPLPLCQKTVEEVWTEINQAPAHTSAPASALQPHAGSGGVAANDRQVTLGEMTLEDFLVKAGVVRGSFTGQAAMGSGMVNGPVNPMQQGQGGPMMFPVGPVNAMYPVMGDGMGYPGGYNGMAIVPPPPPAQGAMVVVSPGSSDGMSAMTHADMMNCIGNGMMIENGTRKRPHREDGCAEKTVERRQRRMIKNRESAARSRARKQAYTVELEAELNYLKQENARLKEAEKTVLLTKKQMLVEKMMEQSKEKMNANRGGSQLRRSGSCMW
As to the kind of experiment: GST pull-down.

B1: MBP::OsJAZ7 fusion protein (protein)
chain: MAASARPVGVGGERATSFAMACSLLSRYVRQNGAAAAELGLGIRGEGEAPRAAPATMSLLPGEAERKKETMELFPQSAGFGQQDAITADSAADAREQEPEKRQLTIFYGGKVLVFNDFPADKAKGLMQLASKGSPVAPQNAAAPAPAAVTDNTKAPMAVPAPVSSLPTAQADAQKPARANASDMPIARKASLHRFLEKRKDRLNAKTPYQASPSDATPVKKEPESQPWLGLGPNAVVKPIERGQ
In the case of B1, the binding result was “binds”.

B2: MBP::OsJAZ6 fusion protein (protein)
chain: MASAKSGERGSSSFAMACSLLSRYVRQNGAAAGELGLGIRGEADANKGKETMELFPQNSGFGSEAAAVKETPDAREQEKRQLTIFYGGKVLVFDDFPAEKAKDLMQMASKSSSTAQNCVLLPSSATATVADNTKVSAVPAPASALPVAQANAPKPVRPNAADLPQARKASLHRFLEKRKDRLQAKAPYQGSPSDASPVKKELQESQPWLGLGPQVAAPDLSLRQESSQ
Turning to B2, the binding result is on record as “binds”.

Source of the values: article PMC10121563 (2023).
